Data set [1] concerns the target prostate-specific membrane antigen (PSMA) (UniProt Q04609). The data set can be described thus: competition (flow cytometry, confocal microscopy). The following applies: 2'-fluoro pyrimidines; 3'-spacer-NH2 as purchased; cells incubated 30 min at room temperature, washed 3x with PBS; buffer, salt and pH of incubation not stated; scale: % cells bound by aptamer nanobubbles with excess free aptamer. (A flow cytometer gives signals particle by particle.)

Data set [2] shares this target. The data set can be described thus: flow cytometry and confocal microscopy on LNCaP cells. The following applies: 2'-fluoro pyrimidines; 3'-spacer-NH2; cells incubated 30 min at room temperature, washed 3x with PBS; buffer, salt and pH of incubation not stated.

UniProt Q04609, sequence (Q04609 whole entry): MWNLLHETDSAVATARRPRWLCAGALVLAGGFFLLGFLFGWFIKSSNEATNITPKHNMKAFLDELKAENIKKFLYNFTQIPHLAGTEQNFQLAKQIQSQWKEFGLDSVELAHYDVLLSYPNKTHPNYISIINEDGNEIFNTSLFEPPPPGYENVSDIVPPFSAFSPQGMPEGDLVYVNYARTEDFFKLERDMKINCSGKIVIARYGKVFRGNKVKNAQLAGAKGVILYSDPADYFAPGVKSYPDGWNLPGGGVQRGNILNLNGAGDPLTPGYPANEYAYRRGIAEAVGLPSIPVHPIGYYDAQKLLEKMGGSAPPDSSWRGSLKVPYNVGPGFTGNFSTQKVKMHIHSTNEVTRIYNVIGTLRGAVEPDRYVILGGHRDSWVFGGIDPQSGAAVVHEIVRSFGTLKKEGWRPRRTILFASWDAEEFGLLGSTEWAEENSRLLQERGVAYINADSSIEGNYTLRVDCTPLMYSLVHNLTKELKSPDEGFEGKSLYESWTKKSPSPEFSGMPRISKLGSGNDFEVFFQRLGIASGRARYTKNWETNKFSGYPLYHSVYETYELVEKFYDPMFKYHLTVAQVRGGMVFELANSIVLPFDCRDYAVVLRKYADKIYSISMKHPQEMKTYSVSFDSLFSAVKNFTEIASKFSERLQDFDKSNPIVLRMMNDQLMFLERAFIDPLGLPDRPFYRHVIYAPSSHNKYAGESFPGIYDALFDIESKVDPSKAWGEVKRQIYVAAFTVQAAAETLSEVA

As for “GGGAGGACGAUGCGGAUCAGCCAUGUUUACGUCACUCCU [A10-3.2 aptamer (free competitor)]”, in data set [1], the binding signal was determined as 4.07. “GGGAGGACGAUGCGGAUCAGCCAUGUUUACGUCACUCCU [A10-3.2 aptamer on siFoxM1-Apt-CNBs]”: the binding signal (% cells bound) in data set [2] worked out at 82.4.

Values taken from PMC6058493.
